Test results reported in patent US20030037355, “Methods and compositions to modulate expression in plants” (published 2003).

B1: m12 hairpin oligo (dsDNA)
DNA: GGAGCCTCCTTCCTCCTCTCACTCGGGTTTTCCCGAGTGAGAGGAGGAAGGAGGCTCC
B2: Ap3 hairpin oligo (dsDNA)
DNA: GGTTACTTCTTCAACTCCATCGGGTTTTCCCGATGGAGTTGAAGAAGTAACC
B3: AP3 endogenous target site (dsDNA)
DNA 1: GATGGAGTTGAAGAAGTA
DNA 2: TACTTCTTCAACTCCATC
B4: m4 endogenous MIPS target site (dsDNA)
DNA 1: GGTGAGGGAGCCGTAGTA
DNA 2: TACTACGGCTCCCTCACC

Columns and labels:
[1] = biological target: ZFPm3 six-finger zinc finger protein (Sp1C framework) (artificial); assay: ELISA, 1.9 ug/ml protein, non-target; settings: tags: MBP fusion (pMAL-C2), E. coli, hairpin
Sequence of ZFPm3 six-finger zinc finger protein (Sp1C framework) (artificial) (chain, as listed by the source): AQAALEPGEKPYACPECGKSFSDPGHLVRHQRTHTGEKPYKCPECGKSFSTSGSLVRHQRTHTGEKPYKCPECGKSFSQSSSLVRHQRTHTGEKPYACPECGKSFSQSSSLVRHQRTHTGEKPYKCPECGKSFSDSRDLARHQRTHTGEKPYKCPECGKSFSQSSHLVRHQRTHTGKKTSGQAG
Experimental: (§1) Coat ELISA plates (Costar 3690) with streptavidin. Use 25 ul/well of 8 ug/ml streptavidin in PBS. Incubate at 37° C. for 1 hr. Wash 2× with dH2O. Bind wells with 25 ul/well of 4 ng/ul biotinylated target oligonucleotide in PBS. Incubate at 37° C. for 1 hr. Wash 2× with dH2O. Block with 175 ul/well of 3% BSA in Zn Buffer A. Incubate at 37° C. for 1 hr. Tap plates dry. Perform 1:2 serial dilutions of extract in Binding Buffer (1%BSA, 5 mM DTT, .12 ug/ul Salmon Sperm DNA in ZnBA). Usually from 1:4 to 1:512 for multi-target ELISA or 1:4 to 1:32 for screening clones for specific DNA binding activity. Incubate 1 hr at room temperature. Wash 8× with dH2O. Add primary antibody: 25 ul/well of 1:1000 dilution of mouse anti-MBP (Sigma M-6295) in 1%BSA ZnBA (no DTT). Incubate 30 min at room temperature. Wash 8× with dH2O. Add secondary antibody: 25 ul/well of 1:1000 dilution of goat anti-mouse/Alkaline Phosphatase (Pierce 31324) in 1%BSA ZnBA (no DTT). Incubate 30 min at room temperature. Wash 8× with dH2O. Develop with 25 ul developer (1 tablet of Sigma 104 Phosphatase Substrate (Sigma 104-105)/5 ml AP Developing Buffer [100 ml diethanolamine+0.05 g MgCl2+97.5 Sodium Azide, adjust to 500 ml with ddH2O, pH 9.88]). Incubate at room temperature for 5-60 min until color reaction is yellow. Read A405 with a plate reader.
(§2) To evaluate the specificity of new zinc finger protein, the affinity of each protein was determined for binding to the target sequence and several non-target sequences at appropriate protein concentration. For example, to protein ZFPm1 and ZFPm2, the non-target oligoes are: Oligo m34 (SEQ ID NO:20), Oligo Ap3 (SEQ ID NO:21), NRI-1 (SEQ ID NO:22), NRI-2 (SEQ ID NO:23), hHD-I (SEQ ID NO:24), hHD-II (SEQ ID NO:25), c5cl-g (SEQ ID NO:26), c5p3-g (SEQ ID NO:27), B3c2 (SEQ ID NO:28), and e2c-g (SEQ ID NO:29). Similarly, to protein ZFPm3 and ZFPm4, the non-target oligoes are Oligo m12 (SEQ ID NO:19), oligo Ap3 (SEQ ID NO:21), and the eight other oligoes. To protein ZFPAp3, the non-target oligoes are Oligo m12, oligo m34 (SEQ ID NO:20), and the eight other oligoes. The affinity reading for target oligo was further normalized to the no oligo control which has the least affinity.

[2] = biological target: T1, ZFPm1 six-finger zinc finger protein (Sp1C framework) (artificial); assay: ELISA, 31.0 ug/ml protein, non-target; settings: tags: MBP fusion (pMAL-C2), E. coli, hairpin
T1 sequence (chain, as listed by the source): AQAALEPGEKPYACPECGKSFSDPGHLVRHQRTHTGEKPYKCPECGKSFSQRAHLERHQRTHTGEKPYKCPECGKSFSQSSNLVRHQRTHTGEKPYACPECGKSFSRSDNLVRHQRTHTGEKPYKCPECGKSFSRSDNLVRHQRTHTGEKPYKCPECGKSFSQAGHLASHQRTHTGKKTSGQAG
Experimental: as §1, §2

[3] = biological target: T2, ZFPAp3 six-finger zinc finger protein (Sp1C framework) (artificial); assay: ELISA, 31.0 ug/ml protein, non-target; settings: tags: MBP fusion (pMAL-C2), E. coli, hairpin
T2 sequence (chain, as listed by the source): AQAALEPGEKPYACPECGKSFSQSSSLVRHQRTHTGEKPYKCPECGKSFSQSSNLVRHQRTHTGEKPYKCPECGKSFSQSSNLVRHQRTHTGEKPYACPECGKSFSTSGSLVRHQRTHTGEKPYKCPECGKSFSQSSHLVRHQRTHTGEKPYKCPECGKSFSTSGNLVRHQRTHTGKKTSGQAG
Experimental: as §1, §2

[4] = biological target: ZFPm4 six-finger zinc finger protein (Sp1C framework) (artificial); assay: ELISA, 15.5 ug/ml protein, non-target; settings: tags: MBP fusion (pMAL-C2), E. coli, hairpin
Experimental: as §1, §2

[5] = biological target: T3, ZFPm2 six-finger zinc finger protein (Sp1C framework) (artificial); assay: ELISA, 15.5 ug/ml protein, non-target; settings: tags: MBP fusion (pMAL-C2), E. coli, hairpin
T3 sequence (chain, as listed by the source): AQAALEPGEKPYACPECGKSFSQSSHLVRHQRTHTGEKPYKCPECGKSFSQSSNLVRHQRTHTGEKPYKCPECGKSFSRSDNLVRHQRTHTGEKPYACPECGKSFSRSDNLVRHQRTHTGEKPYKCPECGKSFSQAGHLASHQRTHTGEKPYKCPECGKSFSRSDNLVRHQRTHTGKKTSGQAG
Experimental: as §1, §2

[6] = biological target: T1, ZFPm1 six-finger zinc finger protein …; assay: EMSA; Zn Buffer A, 10% glycerol, 0.8% BSA, salmon sperm DNA, room temp; settings: tags: MBP fusion (pMAL-C2), E. coli; label: 5'-biotin (ELISA); 32P (gel shift); hairpin
Experimental: (§3) The affinity of the purified six-finger proteins was measured using gel shift assay. The target oligos used in the ELISA assays were radioactively labeled using [γ32P]-ddATPk and terminal transferase. Ten serial dilutions of 1:3 with the purified protein (starting with ˜1 mg/ml) in binding buffer (1 pM labeled oligo, 10% Glycerol, 0.8% BSA, 0.1 ug/ul salmon sperm DNA in Zn Buffer A) were performed. The ZFP was allowed to bind at room temperature for 1 hr. The samples were then run on 5-6% non-denaturing PAGE gel in TBE. The gel was dried and exposed with Phosphoimager. The affinity (Kd) of the ZFP was calculated from this gel. The Kd value is the concentration of the protein at which half of the labeled oligo is shifted to a higher molecular weight on the gel by binding to the ZFP. […] Most of these affinities compare favorably with the existed 6 finger proteins.

[7] = biological target: T3, ZFPm2 six-finger zinc finger protein …; assay: as above; settings: tags: MBP fusion (pMAL-C2), E. coli; label: 5'-biotin (ELISA); 32P (gel shift); hairpin
Experimental: as §3

[8] = biological target: T1, ZFPm1 six-finger zinc finger protein …; assay: ELISA, 31.0 ug/ml protein; settings: tags: MBP fusion (pMAL-C2), E. coli; label: 5'-biotin (ELISA); 32P (gel shift); hairpin
Experimental: as §1, with “Develop with 25 ul developer (1 tablet of Sigma 104 Phosphatase Substrate (Sigma 104-105)/5 ml AP Developing Buffer [100 ml diethanolamine+0.05 g MgCl2+97.5 Sodium Azide, adjust to 500 ml with ddH2O, pH 9.88]). Incubate at room temperature for 5-60 min until color reaction is yellow.” left out
(§4) To evaluate the specificity of new zinc finger protein, the affinity of each protein was determined for binding to the target sequence and several non-target sequences at appropriate protein concentration. […] The affinity reading for target oligo was further normalized to the no oligo control which has the least affinity.

[9] = biological target: T3, ZFPm2 six-finger zinc finger protein …; assay: ELISA, 15.5 ug/ml protein; settings: tags: MBP fusion (pMAL-C2), E. coli; label: 5'-biotin (ELISA); 32P (gel shift); hairpin
Experimental: as §1, with “Develop with 25 ul developer (1 tablet of Sigma 104 Phosphatase Substrate (Sigma 104-105)/5 ml AP Developing Buffer [100 ml diethanolamine+0.05 g MgCl2+97.5 Sodium Azide, adjust to 500 ml with ddH2O, pH 9.88]). Incubate at room temperature for 5-60 min until color reaction is yellow.” left out
as §4

[10] = biological target: T2, ZFPAp3 six-finger zinc finger protein …; assay: EMSA; Zn Buffer A, 10% glycerol, 0.8% BSA, salmon sperm DNA, room temp; settings: tags: MBP fusion (pMAL-C2), E. coli; label: 5'-biotin (ELISA); 32P (gel shift); hairpin
Experimental: as §3

[11] = biological target: T2, ZFPAp3 six-finger zinc finger protein …; assay: ELISA, 31.0 ug/ml protein; settings: tags: MBP fusion (pMAL-C2), E. coli; label: 5'-biotin (ELISA); 32P (gel shift); hairpin
Experimental: as §1, with “Develop with 25 ul developer (1 tablet of Sigma 104 Phosphatase Substrate (Sigma 104-105)/5 ml AP Developing Buffer [100 ml diethanolamine+0.05 g MgCl2+97.5 Sodium Azide, adjust to 500 ml with ddH2O, pH 9.88]). Incubate at room temperature for 5-60 min until color reaction is yellow.” left out
as §4

SID-ZFPAp3 = SID-ZFPAp3 (artificial); assay: cell_activity; endogenous AP3, transgenic Arabidopsis ND0052-2e; 5 fold in ND0052-257; settings: tags: SID
ZFPm4-VP64 = ZFPm4-VP64 (artificial); assay: cell_activity; endogenous MIPS in maize HE89 protoplasts; settings: tags: VP64
Excerpt: A maize type II cell line HE89 was used to evaluate the ZFPmips-effector fusion constructs function (FIG. 22). Protoplasts from HE89 suspension cells were isolated and transformed using standard procedures (Chourey and Zurawski, 1981). The activation constructs pND3015, pND3023, pND3024, and pND3016 were transformed into freshly prepared protoplasts. The transcription level of MIPS gene was detected through quantitative PCR. With pND3016 (ZFPm4-VP64 activation constructs), at least 2-fold of activation is detected (FIG. 23). We also measured phytic acid concentration in maize tissues that were transformed by the activation construct of pND3016.

[12] = label: 5'-biotin (ELISA), 32P (gel shift)

Row | Binder | binding signal ([1]; label: 5'-biotin) | binding signal ([2]; label: 5'-biotin) | binding signal ([3]; label: 5'-biotin) | binding signal ([4]; label: 5'-biotin) | binding signal ([5]; label: 5'-biotin) | other results
1 | GGCTCTGCTCATCCCACTACGGGTTTTCCCGTAGTGGGATGAGCAGAGCC (dsDNA) [c5p3-g] | 3 fold over no oligo | 3 fold over no oligo | 2 fold over no oligo | 2 fold over no oligo | 3 fold over no oligo | –
2 | GGACCCACCGCGTCCCCTCCGGGTTTTCCCGGAGGGGACGCGGTGGGTCC (dsDNA) [B3c2] | 3 fold over no oligo | 4 fold over no oligo | 3 fold over no oligo | 5 fold over no oligo | 4 fold over no oligo | –
3 | GGCACTGCGGCTCCGGCCCCGGGTTTTCCCGGGGCCGGAGCCGCAGTGCC (dsDNA) [e2c-g] | 9 fold over no oligo | 2 fold over no oligo | 3 fold over no oligo | 5 fold over no oligo | 2 fold over no oligo | –
4 | B1 | – | – | – | – | – | binding signal [1, 12]: 3 fold over no oligo; Kd [6]: 2 nM; Kd [7]: 7.5 nM; binding signal [3, 12]: 14 fold over no oligo; binding signal [8]: 18 fold over no oligo; binding signal [4, 12]: 4 fold over no oligo; binding signal [9]: 23 fold over no oligo
5 | B2 | – | – | – | – | – | binding signal [1, 12]: 7 fold over no oligo; Kd [10]: 2.3 nM; binding signal [2, 12]: 4 fold over no oligo; binding signal [11]: 27 fold over no oligo; binding signal [4, 12]: 2 fold over no oligo; binding signal [5, 12]: 3 fold over no oligo
6 | B3 | – | – | – | – | – | activity (SID-ZFPAp3): 46 fold repression
7 | B4 | – | – | – | – | – | activity (ZFPm4-VP64): ≥ 2 fold activation
